B1: RHOBTB2 (parent)
chain: HHHHGRDFLLRAASFDVCESVDEA
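Further: lentivirally expressed fusions sorted by FACS into six bins by GFP to DsRed ratio, PSI derived from sequencing read proportions per bin multiplied by bin number.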

The variants in the data set derive from B1. Description: protein stability index of a GFP-peptide fusion (GPS, HEK-293T) (PSI 1-6); higher = more stable. To be noted: c terminus: a fixed tail appended.
Consider HHHHGRDFSLRAASFDVCESVDEA [L9S], for which the protein stability index is 4.03.

Regarding HHHHGRDFTLRAASFDVCESVDEA [L9T], the protein stability index worked out at 4.53.

Turning to HHHHGRDFMLRAASFDVCESVDEA [L9M], the protein stability index was 4.41.

For the variant HHHHGRDFYLRAASFDVCESVDEA [L9Y], the protein stability index worked out at 3.54.

Turning to HHHHGRDFVLRAASFDVCESVDEA [L9V], the protein stability index turned out to be 4.33.

HHHHGRDFQLRAASFDVCESVDEA [L9Q]: the protein stability index was 5.09.

With HHHHGRDFPLRAASFDVCESVDEA [L9P], the protein stability index was found to be 4.81.

Consider HHHHGRDFRLRAASFDVCESVDEA [L9R], for which the protein stability index stood at 4.3.

For HHHHGRDFNLRAASFDVCESVDEA [L9N], the protein stability index is 5.06.

For the variant HHHHGRDFLLRAASFDVCFSVDEA [E19F], the protein stability index came to 2.22.

For the variant HHHHGRDFLLRAASFDVCASVDEA [E19A], the protein stability index amounted to 2.9.

In the case of HHHHGRDFLLRAASFDVCDSVDEA [E19D], the protein stability index came to 3.72.

HHHHGRDFLLRAASFDVCCSVDEA [E19C]: the protein stability index came to 2.42.

Take HHHHGRDFLLRAASFDVCLSVDEA [E19L]: the protein stability index is 1.56.

For the variant HHHHGRDFLLRAASFDVCKSVDEA [E19K], the protein stability index amounted to 3.

In the case of HHHHGRDFLLRAASFDVCGSVDEA [E19G], the protein stability index was 3.07.

On to HHHHGRDFLLRAASFDVCISVDEA [E19I], for which the protein stability index came out at 2.17.

For the variant HHHHGRDFLLRAASFDVCHSVDEA [E19H], the protein stability index was 2.9.

HHHHGRDFLLRAHSFDVCESVDEA [A13H]: the protein stability index was 3.75.

With HHHHGRDFLLRAYSFDVCESVDEA [A13Y], the protein stability index came out at 2.87.

In the case of HHHHGRDFLLRAPSFDVCESVDEA [A13P], the protein stability index came out at 4.66.

With HHHHGRDFLLRAFSFDVCESVDEA [A13F], the protein stability index was determined as 1.92.

HHHHGRDFLLRALSFDVCESVDEA [A13L]: the protein stability index came to 3.2.

In the case of HHHHGRDFLLRATSFDVCESVDEA [A13T], the protein stability index amounted to 3.49.

HHHHGRDFLLRAISFDVCESVDEA [A13I]: the protein stability index is 3.12.

For the variant HHHHGRDFLLRACSFDVCESVDEA [A13C], the protein stability index stood at 1.87.

Regarding HHHHGRDFLLRANSFDVCESVDEA [A13N], the protein stability index stood at 4.38.

Turning to HHHHGRDFLLRAQSFDVCESVDEA [A13Q], the protein stability index was 3.84.

With HHHHGRDFLLRAKSFDVCESVDEA [A13K], the protein stability index came to 4.09.

In the case of HHHHGRDFLLRAESFDVCESVDEA [A13E], the protein stability index stood at 4.38.

On to HHHHGRDFLLRAMSFDVCESVDEA [A13M], for which the protein stability index was 2.49.

HHHHGRDFLLRASSFDVCESVDEA [A13S]: the protein stability index turned out to be 3.96.

On to HHHHGRDFLLRAVSFDVCESVDEA [A13V], for which the protein stability index is 3.14.

HHHHGRDFLLRADSFDVCESVDEA [A13D]: the protein stability index came out at 4.51.

With HHHHGRDFLLRARSFDVCESVDEA [A13R], the protein stability index was 3.73.

In the case of HHHHGRDFLLRAGSFDVCESVDEA [A13G], the protein stability index was 4.33.

Consider HHHHGRDFLLRAWSFDVCESVDEA [A13W], for which the protein stability index came to 2.45.

On to HHHHGRDFLLWAASFDVCESVDEA [R11W], for which the protein stability index amounted to 1.44.

In the case of HHHHGRDFLLVAASFDVCESVDEA [R11V], the protein stability index amounted to 2.85.

In the case of HHHHGRDFLLNAASFDVCESVDEA [R11N], the protein stability index was 3.87.

For HHHHGRDFLLPAASFDVCESVDEA [R11P], the protein stability index stood at 4.26.

Turning to HHHHGRDFLLGAASFDVCESVDEA [R11G], the protein stability index came out at 4.43.

In the case of HHHHGRDFLLSAASFDVCESVDEA [R11S], the protein stability index was determined as 3.85.

HHHHGRDFLLYAASFDVCESVDEA [R11Y]: the protein stability index was determined as 2.39.

Take HHHHGRDFLLEAASFDVCESVDEA [R11E]: the protein stability index was 5.3.

Regarding HHHHGRDFLLFAASFDVCESVDEA [R11F], the protein stability index is 1.67.

As to HHHHGRDFLLQAASFDVCESVDEA [R11Q], the protein stability index was found to be 3.94.

With HHHHGRDFLLDAASFDVCESVDEA [R11D], the protein stability index stood at 5.18.

In the case of HHHHGRDFLLMAASFDVCESVDEA [R11M], the protein stability index amounted to 2.38.

As for HHHHGRDFLLKAASFDVCESVDEA [R11K], the protein stability index is 4.17.

For the variant HHHHGRDFLLIAASFDVCESVDEA [R11I], the protein stability index was found to be 2.41.

On to HHHHGRDFLLLAASFDVCESVDEA [R11L], for which the protein stability index amounted to 2.35.

Regarding HHHHGRDFLLAAASFDVCESVDEA [R11A], the protein stability index was 3.29.

For HHHHGRDFLLTAASFDVCESVDEA [R11T], the protein stability index amounted to 3.72.

In the case of HHHHGRDFLLHAASFDVCESVDEA [R11H], the protein stability index came out at 4.06.

For the variant HHHHGRDFLLCAASFDVCESVDEA [R11C], the protein stability index worked out at 2.63.

Turning to HHHHGRDFLFRAASFDVCESVDEA [L10F], the protein stability index was 2.96.

Regarding HHHHGRDFLMRAASFDVCESVDEA [L10M], the protein stability index was determined as 3.64.

For HHHHGRDFLTRAASFDVCESVDEA [L10T], the protein stability index was found to be 4.8.

As for HHHHGRDFLVRAASFDVCESVDEA [L10V], the protein stability index is 4.06.

Turning to HHHHGRDFLGRAASFDVCESVDEA [L10G], the protein stability index worked out at 4.29.

In the case of HHHHGRDFLHRAASFDVCESVDEA [L10H], the protein stability index is 4.69.

Consider HHHHGRDFLIRAASFDVCESVDEA [L10I], for which the protein stability index stood at 4.21.

Regarding HHHHGRDFLPRAASFDVCESVDEA [L10P], the protein stability index turned out to be 4.18.

Turning to HHHHGRDFLNRAASFDVCESVDEA [L10N], the protein stability index stood at 5.01.

As for HHHHGRDFLCRAASFDVCESVDEA [L10C], the protein stability index amounted to 4.2.

Turning to HHHHGRDFLSRAASFDVCESVDEA [L10S], the protein stability index is 3.81.

For HHHHGRDFLYRAASFDVCESVDEA [L10Y], the protein stability index amounted to 3.9.

Turning to HHHHGRDFLWRAASFDVCESVDEA [L10W], the protein stability index came to 2.34.

Consider HHHHGRDFLRRAASFDVCESVDEA [L10R], for which the protein stability index came to 4.55.

As for HHHHGRDFLQRAASFDVCESVDEA [L10Q], the protein stability index turned out to be 4.86.

For the variant HHHHGRDFLERAASFDVCESVDEA [L10E], the protein stability index was determined as 5.02.

Turning to HHHHGRDFLDRAASFDVCESVDEA [L10D], the protein stability index worked out at 5.17.

Turning to HHHHGRDFLARAASFDVCESVDEA [L10A], the protein stability index amounted to 3.94.

Turning to HHHHGRDFLKRAASFDVCESVDEA [L10K], the protein stability index is 4.09.

As for HHHHGRDFLLRAASFDVNESVDEA [C18N], the protein stability index was 4.21.

For HHHHGRDFLLRAASFDVMESVDEA [C18M], the protein stability index amounted to 3.37.

Turning to HHHHGRDFLLRAASFDVEESVDEA [C18E], the protein stability index stood at 4.77.

Take HHHHGRDFLLRAASFDVQESVDEA [C18Q]: the protein stability index was 4.03.

As for HHHHGRDFLLRAASFDVFESVDEA [C18F], the protein stability index turned out to be 3.54.

For HHHHGRDFLLRAASFDVSESVDEA [C18S], the protein stability index is 4.06.

In the case of HHHHGRDFLLRAASFDVHESVDEA [C18H], the protein stability index was found to be 3.4.

Consider HHHHGRDFLLRAASFDVDESVDEA [C18D], for which the protein stability index was found to be 4.75.

HHHHGRDFLLRAASFDVWESVDEA [C18W]: the protein stability index came out at 2.48.

As to HHHHGRDFLLRAASFDVRESVDEA [C18R], the protein stability index was determined as 3.65.

HHHHGRDFLLRAASFDVGESVDEA [C18G]: the protein stability index came to 4.24.

As for HHHHGRDFLLRAASFDVAESVDEA [C18A], the protein stability index is 3.96.

HHHHGRDFLLRAASFDVPESVDEA [C18P]: the protein stability index came to 4.42.

Consider HHHHGRDFLLRAASFDVYESVDEA [C18Y], for which the protein stability index was determined as 2.82.

For HHHHGRDFLLRAASFDVKESVDEA [C18K], the protein stability index was found to be 3.94.

On to HHHHGRDFLLRAASFDVLESVDEA [C18L], for which the protein stability index was 2.9.

As to HHHHGRDFLLRAASFDVIESVDEA [C18I], the protein stability index is 3.57.

HHHHGRDFLLRAASFDVTESVDEA [C18T]: the protein stability index turned out to be 3.7.

On to HHHHGRDFLLRAASFDVVESVDEA [C18V], for which the protein stability index amounted to 3.95.

Values taken from the supplement of paper PMC10567573.
